The RNAGym collection of RNA variant scans (doi:10.1021/acssynbio.7b00057)

B1: Pistol ribozyme (parent)
chain: GGGUCGUUGUUCCAUAAUCGCGUGGAUAUGGCACGCAAGUUUCUACCGGGCACCGUAAAUGUCCGACUGGAGCCGUUCGGGCGGCUAUAAACAGACCUCAGGCCCGAAGCGUGGCGGCACCUGCCGCCGGUGGUAAAAAAGAUCGGAAGAGCACACGUCU

Variants of: B1
Test: aptazyme ON/OFF ratio, guanine; higher = stronger switching; co-transcriptional cleavage with and without guanine
In the case of GGGUCGGCUCGCCAUAAUCGCGUGGAUAUGGCACGCAAGUUUCUACCGGGCACCGUAAAUGUCCGACUGGAGCCGUUCGGGCGGCUAUAAACAGACCUCAGGCCCGAAGCGUGGCGGCACCUGCCGCCGGUGGUAAAAAAGAUCGGAAGAGCACACGUCU, the “aptazyme ON/OFF ratio” value is reported as 1.76. In the case of GGGUCGGCUCCCCAUAAUCGCGUGGAUAUGGCACGCAAGUUUCUACCGGGCACCGUAAAUGUCCGACUGGAGCCGUUCGGGCGGCUAUAAACAGACCUCAGGCCCGAAGCGUGGCGGCACCUGCCGCCGGUGGUAAAAAAGAUCGGAAGAGCACACGUCU, the “aptazyme ON/OFF ratio” value is reported as 1.32. In the case of GGGUCGGCUCCGGAUAAUCGCGUGGAUAUGGCACGCAAGUUUCUACCGGGCACCGUAAAUGUCCGACUGGAGCCGUUCGGGCGGCUAUAAACAGACCUCAGGCCCGAAGCGUGGCGGCACCUGCCGCCGGUGGUAAAAAAGAUCGGAAGAGCACACGUCU, the “aptazyme ON/OFF ratio” value is reported as 1.29. With GGGUCGGCUCCGAAUAAUCGCGUGGAUAUGGCACGCAAGUUUCUACCGGGCACCGUAAAUGUCCGACUGGAGCCGUUCGGGCGGCUAUAAACAGACCUCAGGCCCGAAGCGUGGCGGCACCUGCCGCCGGUGGUAAAAAAGAUCGGAAGAGCACACGUCU the “aptazyme ON/OFF ratio” value was 1.45. In the case of GGGUCGGCUCCGUAUAAUCGCGUGGAUAUGGCACGCAAGUUUCUACCGGGCACCGUAAAUGUCCGACUGGAGCCGUUCGGGCGGCUAUAAACAGACCUCAGGCCCGAAGCGUGGCGGCACCUGCCGCCGGUGGUAAAAAAGAUCGGAAGAGCACACGUCU, the “aptazyme ON/OFF ratio” value is reported as 1.22. With GGGUCGGCUCGGUAUAAUCGCGUGGAUAUGGCACGCAAGUUUCUACCGGGCACCGUAAAUGUCCGACUGGAGCCGUUCGGGCGGCUAUAAACAGACCUCAGGCCCGAAGCGUGGCGGCACCUGCCGCCGGUGGUAAAAAAGAUCGGAAGAGCACACGUCU the “aptazyme ON/OFF ratio” value was 1.08. In the case of GGGUCGGCUCGGGAUAAUCGCGUGGAUAUGGCACGCAAGUUUCUACCGGGCACCGUAAAUGUCCGACUGGAGCCGUUCGGGCGGCUAUAAACAGACCUCAGGCCCGAAGCGUGGCGGCACCUGCCGCCGGUGGUAAAAAAGAUCGGAAGAGCACACGUCU, the “aptazyme ON/OFF ratio” value is reported as 1.11. For GGGUCGGCUCGGAAUAAUCGCGUGGAUAUGGCACGCAAGUUUCUACCGGGCACCGUAAAUGUCCGACUGGAGCCGUUCGGGCGGCUAUAAACAGACCUCAGGCCCGAAGCGUGGCGGCACCUGCCGCCGGUGGUAAAAAAGAUCGGAAGAGCACACGUCU, the “aptazyme ON/OFF ratio” value was 1.08. For GGGUCGGCUCCCGAUAAUCGCGUGGAUAUGGCACGCAAGUUUCUACCGGGCACCGUAAAUGUCCGACUGGAGCCGUUCGGGCGGCUAUAAACAGACCUCAGGCCCGAAGCGUGGCGGCACCUGCCGCCGGUGGUAAAAAAGAUCGGAAGAGCACACGUCU, the “aptazyme ON/OFF ratio” value was 1.08. For GGGUCGGCUCCCAAUAAUCGCGUGGAUAUGGCACGCAAGUUUCUACCGGGCACCGUAAAUGUCCGACUGGAGCCGUUCGGGCGGCUAUAAACAGACCUCAGGCCCGAAGCGUGGCGGCACCUGCCGCCGGUGGUAAAAAAGAUCGGAAGAGCACACGUCU, the “aptazyme ON/OFF ratio” value was 1.34. With GGGUCGGCUCCCUAUAAUCGCGUGGAUAUGGCACGCAAGUUUCUACCGGGCACCGUAAAUGUCCGACUGGAGCCGUUCGGGCGGCUAUAAACAGACCUCAGGCCCGAAGCGUGGCGGCACCUGCCGCCGGUGGUAAAAAAGAUCGGAAGAGCACACGUCU the “aptazyme ON/OFF ratio” value was 1.52. In the case of GGGUCGGCUCCUGAUAAUCGCGUGGAUAUGGCACGCAAGUUUCUACCGGGCACCGUAAAUGUCCGACUGGAGCCGUUCGGGCGGCUAUAAACAGACCUCAGGCCCGAAGCGUGGCGGCACCUGCCGCCGGUGGUAAAAAAGAUCGGAAGAGCACACGUCU, the “aptazyme ON/OFF ratio” value is reported as 1.41. In the case of GGGUCGGCUCCUAAUAAUCGCGUGGAUAUGGCACGCAAGUUUCUACCGGGCACCGUAAAUGUCCGACUGGAGCCGUUCGGGCGGCUAUAAACAGACCUCAGGCCCGAAGCGUGGCGGCACCUGCCGCCGGUGGUAAAAAAGAUCGGAAGAGCACACGUCU, the “aptazyme ON/OFF ratio” value is reported as 1.55. In the case of GGGUCGGCUCCUUAUAAUCGCGUGGAUAUGGCACGCAAGUUUCUACCGGGCACCGUAAAUGUCCGACUGGAGCCGUUCGGGCGGCUAUAAACAGACCUCAGGCCCGAAGCGUGGCGGCACCUGCCGCCGGUGGUAAAAAAGAUCGGAAGAGCACACGUCU, the “aptazyme ON/OFF ratio” value is reported as 1.27. In the case of GGGUCGGCUCCAGAUAAUCGCGUGGAUAUGGCACGCAAGUUUCUACCGGGCACCGUAAAUGUCCGACUGGAGCCGUUCGGGCGGCUAUAAACAGACCUCAGGCCCGAAGCGUGGCGGCACCUGCCGCCGGUGGUAAAAAAGAUCGGAAGAGCACACGUCU, the “aptazyme ON/OFF ratio” value is reported as 1.22. For GGGUCGGCUCCAUAUAAUCGCGUGGAUAUGGCACGCAAGUUUCUACCGGGCACCGUAAAUGUCCGACUGGAGCCGUUCGGGCGGCUAUAAACAGACCUCAGGCCCGAAGCGUGGCGGCACCUGCCGCCGGUGGUAAAAAAGAUCGGAAGAGCACACGUCU, the “aptazyme ON/OFF ratio” value was 1.54. With GGGUCGGCUCCAAAUAAUCGCGUGGAUAUGGCACGCAAGUUUCUACCGGGCACCGUAAAUGUCCGACUGGAGCCGUUCGGGCGGCUAUAAACAGACCUCAGGCCCGAAGCGUGGCGGCACCUGCCGCCGGUGGUAAAAAAGAUCGGAAGAGCACACGUCU the “aptazyme ON/OFF ratio” value was 1.52. In the case of GGGUCGGCUCGCGAUAAUCGCGUGGAUAUGGCACGCAAGUUUCUACCGGGCACCGUAAAUGUCCGACUGGAGCCGUUCGGGCGGCUAUAAACAGACCUCAGGCCCGAAGCGUGGCGGCACCUGCCGCCGGUGGUAAAAAAGAUCGGAAGAGCACACGUCU, the “aptazyme ON/OFF ratio” value is reported as 1.09. For GGGUCGGCUCGCUAUAAUCGCGUGGAUAUGGCACGCAAGUUUCUACCGGGCACCGUAAAUGUCCGACUGGAGCCGUUCGGGCGGCUAUAAACAGACCUCAGGCCCGAAGCGUGGCGGCACCUGCCGCCGGUGGUAAAAAAGAUCGGAAGAGCACACGUCU, the “aptazyme ON/OFF ratio” value was 1.38. In the case of GGGUCGGCUCGCAAUAAUCGCGUGGAUAUGGCACGCAAGUUUCUACCGGGCACCGUAAAUGUCCGACUGGAGCCGUUCGGGCGGCUAUAAACAGACCUCAGGCCCGAAGCGUGGCGGCACCUGCCGCCGGUGGUAAAAAAGAUCGGAAGAGCACACGUCU, the “aptazyme ON/OFF ratio” value is reported as 1.44. For GGGUCGGCUCGUCAUAAUCGCGUGGAUAUGGCACGCAAGUUUCUACCGGGCACCGUAAAUGUCCGACUGGAGCCGUUCGGGCGGCUAUAAACAGACCUCAGGCCCGAAGCGUGGCGGCACCUGCCGCCGGUGGUAAAAAAGAUCGGAAGAGCACACGUCU, the “aptazyme ON/OFF ratio” value was 2.47. In the case of GGGUCGGCUCGGCAUAAUCGCGUGGAUAUGGCACGCAAGUUUCUACCGGGCACCGUAAAUGUCCGACUGGAGCCGUUCGGGCGGCUAUAAACAGACCUCAGGCCCGAAGCGUGGCGGCACCUGCCGCCGGUGGUAAAAAAGAUCGGAAGAGCACACGUCU, the “aptazyme ON/OFF ratio” value is reported as 1.1. For GGGUCGGCUCGACAUAAUCGCGUGGAUAUGGCACGCAAGUUUCUACCGGGCACCGUAAAUGUCCGACUGGAGCCGUUCGGGCGGCUAUAAACAGACCUCAGGCCCGAAGCGUGGCGGCACCUGCCGCCGGUGGUAAAAAAGAUCGGAAGAGCACACGUCU, the “aptazyme ON/OFF ratio” value was 1.75. For GGGUCGGCUGUAGAUAAUCGCGUGGAUAUGGCACGCAAGUUUCUACCGGGCACCGUAAAUGUCCGACUGGAGCCGUUCGGGCGGCUAUAAACAGACCUCAGGCCCGAAGCGUGGCGGCACCUGCCGCCGGUGGUAAAAAAGAUCGGAAGAGCACACGUCU, the “aptazyme ON/OFF ratio” value was 1.11. In the case of GGGUCGGCUGUAAAUAAUCGCGUGGAUAUGGCACGCAAGUUUCUACCGGGCACCGUAAAUGUCCGACUGGAGCCGUUCGGGCGGCUAUAAACAGACCUCAGGCCCGAAGCGUGGCGGCACCUGCCGCCGGUGGUAAAAAAGAUCGGAAGAGCACACGUCU, the “aptazyme ON/OFF ratio” value is reported as 1.37. With GGGUCGGCUGUCCAUAAUCGCGUGGAUAUGGCACGCAAGUUUCUACCGGGCACCGUAAAUGUCCGACUGGAGCCGUUCGGGCGGCUAUAAACAGACCUCAGGCCCGAAGCGUGGCGGCACCUGCCGCCGGUGGUAAAAAAGAUCGGAAGAGCACACGUCU the “aptazyme ON/OFF ratio” value was 3.44. With GGGUCGGCUGUACAUAAUCGCGUGGAUAUGGCACGCAAGUUUCUACCGGGCACCGUAAAUGUCCGACUGGAGCCGUUCGGGCGGCUAUAAACAGACCUCAGGCCCGAAGCGUGGCGGCACCUGCCGCCGGUGGUAAAAAAGAUCGGAAGAGCACACGUCU the “aptazyme ON/OFF ratio” value was 1.58. For GGGUCGGCUCGAGAUAAUCGCGUGGAUAUGGCACGCAAGUUUCUACCGGGCACCGUAAAUGUCCGACUGGAGCCGUUCGGGCGGCUAUAAACAGACCUCAGGCCCGAAGCGUGGCGGCACCUGCCGCCGGUGGUAAAAAAGAUCGGAAGAGCACACGUCU, the “aptazyme ON/OFF ratio” value was 1.21. For GGGUCGGCUCGAAAUAAUCGCGUGGAUAUGGCACGCAAGUUUCUACCGGGCACCGUAAAUGUCCGACUGGAGCCGUUCGGGCGGCUAUAAACAGACCUCAGGCCCGAAGCGUGGCGGCACCUGCCGCCGGUGGUAAAAAAGAUCGGAAGAGCACACGUCU, the “aptazyme ON/OFF ratio” value was 1.18. With GGGUCGGCUCGAUAUAAUCGCGUGGAUAUGGCACGCAAGUUUCUACCGGGCACCGUAAAUGUCCGACUGGAGCCGUUCGGGCGGCUAUAAACAGACCUCAGGCCCGAAGCGUGGCGGCACCUGCCGCCGGUGGUAAAAAAGAUCGGAAGAGCACACGUCU the “aptazyme ON/OFF ratio” value was 1.25. With GGGUCGGCUCGUUAUAAUCGCGUGGAUAUGGCACGCAAGUUUCUACCGGGCACCGUAAAUGUCCGACUGGAGCCGUUCGGGCGGCUAUAAACAGACCUCAGGCCCGAAGCGUGGCGGCACCUGCCGCCGGUGGUAAAAAAGAUCGGAAGAGCACACGUCU the “aptazyme ON/OFF ratio” value was 1.28. For GGGUCGGCUCGUAAUAAUCGCGUGGAUAUGGCACGCAAGUUUCUACCGGGCACCGUAAAUGUCCGACUGGAGCCGUUCGGGCGGCUAUAAACAGACCUCAGGCCCGAAGCGUGGCGGCACCUGCCGCCGGUGGUAAAAAAGAUCGGAAGAGCACACGUCU, the “aptazyme ON/OFF ratio” value was 1.34. In the case of GGGUCGGCUCGUGAUAAUCGCGUGGAUAUGGCACGCAAGUUUCUACCGGGCACCGUAAAUGUCCGACUGGAGCCGUUCGGGCGGCUAUAAACAGACCUCAGGCCCGAAGCGUGGCGGCACCUGCCGCCGGUGGUAAAAAAGAUCGGAAGAGCACACGUCU, the “aptazyme ON/OFF ratio” value is reported as 1.21. For GGGUCGGCUCCUCAUAAUCGCGUGGAUAUGGCACGCAAGUUUCUACCGGGCACCGUAAAUGUCCGACUGGAGCCGUUCGGGCGGCUAUAAACAGACCUCAGGCCCGAAGCGUGGCGGCACCUGCCGCCGGUGGUAAAAAAGAUCGGAAGAGCACACGUCU, the “aptazyme ON/OFF ratio” value was 1.29. In the case of GGGUCGGCUCCACAUAAUCGCGUGGAUAUGGCACGCAAGUUUCUACCGGGCACCGUAAAUGUCCGACUGGAGCCGUUCGGGCGGCUAUAAACAGACCUCAGGCCCGAAGCGUGGCGGCACCUGCCGCCGGUGGUAAAAAAGAUCGGAAGAGCACACGUCU, the “aptazyme ON/OFF ratio” value is reported as 1.42. In the case of GGGUCGGCUCCGCAUAAUCGCGUGGAUAUGGCACGCAAGUUUCUACCGGGCACCGUAAAUGUCCGACUGGAGCCGUUCGGGCGGCUAUAAACAGACCUCAGGCCCGAAGCGUGGCGGCACCUGCCGCCGGUGGUAAAAAAGAUCGGAAGAGCACACGUCU, the “aptazyme ON/OFF ratio” value is reported as 1.16.
